Laboratory results reported in patent publication US6673354B2, “Compositions and methods for treating papillomavirus-infected cells” (priority 1998, dated 2004).
Where no end group is shown, it is not given here.

How the values were obtained:
[1] = biological target: T1, interaction between HPV11 E1 and HPV16 E2 (Human papillomavirus 11, UniProt P04014); assay: In vitro HPV E1-E2 binding assay, HPV11 E1 and HPV16 E2
T1 construct: made in house; host or cells: Hi-Five insect cells infected with recombinant baculovirus (HPV-11 EE-E1 virus a gift from Louise Chow); nuclear extracts
T1 sequence (P04014 whole entry, looked up): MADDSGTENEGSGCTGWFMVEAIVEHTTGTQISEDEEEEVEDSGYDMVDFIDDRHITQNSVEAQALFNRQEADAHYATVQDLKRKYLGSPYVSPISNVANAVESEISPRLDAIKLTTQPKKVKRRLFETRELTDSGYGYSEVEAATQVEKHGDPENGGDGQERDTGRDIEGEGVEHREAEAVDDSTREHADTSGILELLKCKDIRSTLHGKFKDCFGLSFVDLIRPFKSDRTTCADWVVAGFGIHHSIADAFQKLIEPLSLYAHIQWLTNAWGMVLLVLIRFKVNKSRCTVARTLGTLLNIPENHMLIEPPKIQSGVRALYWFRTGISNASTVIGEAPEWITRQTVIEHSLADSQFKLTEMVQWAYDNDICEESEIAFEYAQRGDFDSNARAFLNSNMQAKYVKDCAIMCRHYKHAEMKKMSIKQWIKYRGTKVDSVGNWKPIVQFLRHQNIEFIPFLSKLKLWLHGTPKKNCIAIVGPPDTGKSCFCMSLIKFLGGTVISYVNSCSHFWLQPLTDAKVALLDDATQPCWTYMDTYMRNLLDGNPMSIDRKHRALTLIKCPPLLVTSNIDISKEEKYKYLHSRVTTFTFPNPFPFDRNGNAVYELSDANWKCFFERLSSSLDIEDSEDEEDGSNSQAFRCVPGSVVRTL
Protocol: (§1) In vitro HPV E1-E2 binding assay. 300-500 ng protein from HPV16 or HPV11 EE-E1 expressing recombinant baculovirus infected cell nuclear extracts and 80-120 ng from HPV E2 baculovirus infected cell nuclear extracts were incubated in 500 μl NET-gel buffer (50 mM Tris-HCl pH7.5, 150 mM NaCl, 0.1% NP-40, 1 mM EDTA, 0.25% gelatin) at 4° C. for one hour. 1-2 μg anti-EE monoclonal antibody was added and incubated with shaking at 4° C. for one hour. Immune complexes were precipitated with protein-G agarose beads and washed twice for 30 minutes with ice cold NET-gel buffer. Precipitated proteins were detected by Western blot using appropriate primary antibodies and anti-rabbit IgG HRP or anti-mouse IgG HRP (Amersham). Membranes were blocked for one hour in TNET (10 mM Tris 7.5, 2.5 mM EDTA, 50 mM NaCl, 0.1% Tween-20) containing 4% (w/v) dry milk. Washes and antibody reactions were carried out in TNET, and proteins were visualized by chemiluminescence (Reneaissance ECL, NEN) and autoradiography. Bands were quantitated using the NIH image program.
(§2) Very little is known about the physical properties of domains within the papillomavirus E1 and E2 proteins that are involved in intermolecular recognition and association. […] The effect of the E2N-WP15 peptide on these interactions was also assessed. […]

HPV11 E1/E2 interaction = biological target: T2, HPV11 E1/E2 interaction (Human papillomavirus 11, UniProt P04014); assay: In vitro HPV E1-E2 binding assay, HPV11 E1 and HPV11 E2
T2 construct: made in house; host or cells: Hi-Five insect cells infected with recombinant baculoviruses (gift from Louise Chow); nuclear extracts
T2 sequence (P04014 whole entry, looked up): T1 sequence (P04014 whole entry, looked up)
Protocol: as §1, §2

## WKHMRLACAIYYKAR [E2N-MP15]
[1]
  inhibition of interaction between HPV11 E1 and HPV16 E2: did not inhibit
HPV11 E1/E2 interaction
  inhibition of HPV11 E1/E2 interaction: did not inhibit
